Data on six substances can be found in patent US20100015126A1, “Methods of Binding of Cross-Beta Structures By Chaperones” (priority 2006, published 2010).

This experiment addresses T1, human mitochondrial HSP60 (Homo sapiens, UniProt P10809).
T1 construct: Dr. W. van Eden, Utrecht University; host or cells: E. coli
Briefly: ELISA: binding of HSP60 to immobilized (misfolded) protein ligands. The procedure:
Recombinant human HSP60 with N-terminal His-tag was a kind gift of Dr. R. van der Zee and Prof. Dr. W. van Eden (Institute of Infectious Diseases and Immunology, Faculty of Veterinary Medicine, Utrecht University, Utrecht, The Netherlands), and was supplied in lyophilized form. The HSP60 was produced in E. coli and purified using Nickel-Sepharose. The HSP60 was lyophilized from 20-40 mM ammonium-bicarbonate solution, after purification, and stored at −20° C. The construct lacks the mitochondrial signal sequence. […] Before use, the lyophilized protein is dissolved at room temperature at 1 mg/ml in 20-40 mM NH4HCO3, resulting in a pH of 7.0. Aliquots are stored at −20° C. or −80° C. The mitochondrial HSP60 is a functional dimer of heptamers (MW(HSP60 monomer)=˜58 kDa), and is involved in multimer protein assembling and aids in transport of unfolded proteins across membranes. For the binding studies, at two occasions separate HSP60 solutions were prepared originating from the same batch of purified protein, lyophilized in separate Eppendorf cups.
Binding of chaperones to immobilized (misfolded) protein ligands was determined using an enzyme linked immuno sorbent assay (ELISA) approach. For this purpose 50 μl/well of potential ligands at indicated concentrations or coat buffer only for control and background measurement purposes, were coated overnight at 4° C. or coated for 1 h at room temperature, with motion, in 50 mM NaHCO3 pH 9.6 (coat buffer). In general, ligands were coated at 5 μg/ml, unless stated otherwise. For example, BiP binding peptides 6BB# and oxLDL were coated at 50 μg/ml. Native haemoglobin (Sigma-Aldrich, H7379), albumin, IgIV Gammagard and ovalbumin controls were prepared from lyophilized stocks. The controls were prepared by dissolving lyophilized proteins at 1 mg/ml in PBS upon resuspending by pipetting, followed by a 30 minutes period at the roller device, at room temperature. The protein solutions were centrifuged for 10 minutes at 16,000*g and diluted in coat buffer. After coating the plates were washed at least three times with 50 mM Tris-HCl pH 7.3, 150 mM NaCl, 0.1% v/v Tween20, and blocked with Blocking reagent (Roche Diagnostics, Almere, The Netherlands; 11112589001), for 1 h at room temperature, with motion. Plates were washed three times and incubated in triplicate with indicated chaperone dilution series, at 50 μl/well, for 1 h at room temperature, with constant motion. For HSP90, 5 mM DTT is incorporated in the binding buffer (PBS/0.1% Tween20) to avoid unwanted disulfide bond formation of the HSP90. Plates were washed three times and incubated with anti-FLAG antibody (mouse antibody, M2, peroxidase conjugate; Sigma, A-8592) for BiP-FLAG-His, anti-His-tag antibody (Mouse Monoclonal Antibody, Cat. No. 70796, Novagen [0.2 mg/ml]) for HSP60, a 1:1 mix of 500-fold diluted anti-HSP90beta antibodies (Stressgen, SPA-643 [mouse monoclonal IgM], SPA-646 [rabbit polyclonal]) for HSP90 and an anti-DnaK antibody (Stressgen, 023SPA-880D [mouse monoclonal antibody]) for DnaK. After four wash cycles, secondary antibodies were added to the wells when required, 50 μl/well, for 45′ at room temperature, with motion. RAMPO and SWARPO were used at 3000 times dilution. […] In a second experiment with more immobilized misfolded proteins and controls, the detection of bound HSP90 with the mix of two anti-HSP90 antibodies was achieved by mixing 1:1500 SWARPO with 1:3000 RAMPO. After 5 washes with wash buffer followed by two washes with PBS, binding of antibodies was assessed. Bound anti-FLAG-PO, peroxidase-conjugated rabbit anti-mouse immunoglobulins (RAMPO, P0260, DAKOCytomation, Glostrup, Denmark) or peroxidase-coupled swine anti-rabbit immunoglobulins (SWARPO, P0217, DAKOCytomation) was visualized with tetramethylbenzidine (TMB, #45.01.20,/#45.014.01, Biosource, Nivelles, Belgium). The reaction was stopped after 5 minutes with 1% H2SO4 in H2O. Plates were read at 450 nm. […]

T1 sequence (P10809 27-573): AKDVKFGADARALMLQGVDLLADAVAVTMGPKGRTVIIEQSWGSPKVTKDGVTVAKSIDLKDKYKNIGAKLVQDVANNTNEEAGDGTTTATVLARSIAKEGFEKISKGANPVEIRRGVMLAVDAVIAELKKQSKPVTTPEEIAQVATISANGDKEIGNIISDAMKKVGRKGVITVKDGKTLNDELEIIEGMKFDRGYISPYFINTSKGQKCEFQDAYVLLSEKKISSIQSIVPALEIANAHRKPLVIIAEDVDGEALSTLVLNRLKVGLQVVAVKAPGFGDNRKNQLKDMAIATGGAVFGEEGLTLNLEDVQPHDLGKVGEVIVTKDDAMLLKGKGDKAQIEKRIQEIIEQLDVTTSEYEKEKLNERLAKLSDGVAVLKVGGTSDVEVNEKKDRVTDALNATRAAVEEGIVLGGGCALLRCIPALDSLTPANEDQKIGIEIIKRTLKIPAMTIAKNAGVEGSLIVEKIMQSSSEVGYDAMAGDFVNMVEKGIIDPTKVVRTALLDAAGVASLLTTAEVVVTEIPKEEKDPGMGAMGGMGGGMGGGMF

On to BSA-AGE, for which the “Binding of concentration series of HSP60 to coated ligand” value is recorded as “has been established”. Under GSNKGAIIGLM [6BB6, Human Aβ (25-35)] stands “has been established”; under “Hb: non-modified human haemoglobin control”, “did not bind”; under “HbAGE: human haemoglobin glycated with glucose-6-phosphate for 75 weeks”, “has been established”. Under KLVFFAE [6BB12, Human Aβ16-22] stands “did not bind”; under “native BSA: non-modified bovine serum albumin control”, “did not bind”.
